Data: US6649364

What was measured:
[1] = target: DNase I (Sigma, St. Louis, Mo.); experiment: cell-based or functional assay
[2] = target: α-actin purified from rabbit skeletal muscle, globular (G-actin) form (UniProt P68135)

Substance | DNase I digestion of plasmid DNA (agarose gel): level of inhibition against diluted intact actin [1] | DNase I digestion of plasmid DNA (agarose gel): reduction in DNase I inhibition [1] | DNase I digestion of plasmid DNA (agarose gel) [2]
actin cleaved for 90 minutes by ICE | 5 fold | 80% | 
DNase I (Sigma, St. Louis, Mo.) |  |  | preincubation of DNase I with intact actin (1.5 µg) for 5 minutes markedly reduced its ability to digest the plasmid
